For experiment [1], the target named is T1, human LILRB4 (human, UniProt Q8NHJ6 22-259, limits assumed).
T1 construct: also called leukocyte immunoglobulin-like receptor subfamily B member 4
In words: reactivity table, assay not named on the sheet.

Experiment [2] addresses T2, LILRB3 (human, UniProt O75022 24-443, limits assumed).
T2 construct: also called leukocyte immunoglobulin-like receptor subfamily B member 3
In words: reactivity table, assay not named on the sheet.

In experiment [3] the target is T3, LILRB5 (human, UniProt O75023 24-458, limits assumed). Description: reactivity table, assay not named on the sheet.
For experiment [4], the target named is T4, LILRB2 (human, UniProt Q8N423 22-458, limits assumed).
T4 construct: also called leukocyte immunoglobulin-like receptor subfamily B member 2
In words: flow cytometry on LILRB2-overexpressing 293T cells, mAb at 2 ug/ml.

Experiment [5] has as its target T1, human LILRB4. In words: ELISA, OD450 against antibody concentration.
In experiment [6] the target is T1, human LILRB4. Description: ELISA.
In experiment [7] the target is T1, human LILRB4. In words: ELISA, OD450 against antibody concentration. This is another data set of the same source.
The target in the next experiment is T5, LILRB1 (human, UniProt Q8NHL6 24-458, limits assumed).
T5 construct: also called leukocyte immunoglobulin-like receptor subfamily B member 1
In words: cross-reactivity test on the LILRBs (ELISA per paragraph 433).

Experiment [8] addresses T4, LILRB2. The experiment is described as above.
In experiment [9] the target is T2, LILRB3. The description is as above.
Experiment [10] has as its target T3, LILRB5. The experiment is described as above.
For a further experiment, the target named is T6, D2.
T6 construct: also called LILRB4 D2-hIgG1-Fc; second Ig-like domain of LILRB4 as Fc fusion
In words: matrix of binding to LILRB4 domain-Fc fusions (FIG. 47); ELISA per paragraph 433.

The next experiment deals with T7, SR.
T7 construct: also called LILRB4 SR-hIgG1-Fc; stalk region of LILRB4 as Fc fusion
The experiment is described as above.

Experiment [11] has as its target T1, human LILRB4. Description: ELISA, OD450 against antibody concentration. The source holds these as a separate data set.
Experiment [12] addresses T1, human LILRB4. In words: ELISA, OD450 against antibody concentration. The source holds these as a separate data set.
Experiment [13] concerns the target T1, human LILRB4. Description: ELISA, OD450 against antibody concentration. The source holds these as a separate data set.
The next experiment addresses D2-SR-M16(210-259). Description: ELISA, mAb titrated on D2-SR-M16(210-259).
The target of experiment [14] is T1, human LILRB4. In words: ELISA, OD450 against antibody concentration. The source holds these as a separate data set.
Experiment [15] deals with T1, human LILRB4. Description: ELISA, OD450 against antibody concentration. The source holds these as a separate data set.
In experiment [16] the target is T1, human LILRB4. Description: ELISA, OD450 against antibody concentration. The source holds these as a separate data set.
Experiment [17] deals with T2, LILRB3. Description: cross-reactivity ELISA (FIG. 46).
The target of experiment [18] is T3, LILRB5. In words: cross-reactivity ELISA (FIG. 46).
The target in experiment [19] is T1, human LILRB4. In words: ELISA, OD450 against antibody concentration. This is another data set of the same source.
Experiment [20] concerns the target T1, human LILRB4. Description: ELISA, OD450 against antibody concentration. The source holds these as a separate data set.

The record followed here is US20200079851A1 (University of Texas, published 2020).

T3 sequence (O75023 24-458 limits assumed): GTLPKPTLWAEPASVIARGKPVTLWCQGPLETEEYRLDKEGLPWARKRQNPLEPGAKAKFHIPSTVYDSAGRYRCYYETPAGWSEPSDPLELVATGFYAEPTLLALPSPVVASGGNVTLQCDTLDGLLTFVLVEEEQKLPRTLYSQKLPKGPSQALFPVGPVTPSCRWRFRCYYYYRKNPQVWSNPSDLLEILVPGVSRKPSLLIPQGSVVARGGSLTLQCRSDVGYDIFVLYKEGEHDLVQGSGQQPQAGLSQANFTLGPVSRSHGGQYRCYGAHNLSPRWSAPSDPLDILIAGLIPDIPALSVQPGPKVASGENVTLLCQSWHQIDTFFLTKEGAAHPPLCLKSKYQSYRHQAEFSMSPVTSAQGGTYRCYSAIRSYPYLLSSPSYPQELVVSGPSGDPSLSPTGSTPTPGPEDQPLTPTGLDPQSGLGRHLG
T4 sequence (Q8N423 22-458 limits assumed): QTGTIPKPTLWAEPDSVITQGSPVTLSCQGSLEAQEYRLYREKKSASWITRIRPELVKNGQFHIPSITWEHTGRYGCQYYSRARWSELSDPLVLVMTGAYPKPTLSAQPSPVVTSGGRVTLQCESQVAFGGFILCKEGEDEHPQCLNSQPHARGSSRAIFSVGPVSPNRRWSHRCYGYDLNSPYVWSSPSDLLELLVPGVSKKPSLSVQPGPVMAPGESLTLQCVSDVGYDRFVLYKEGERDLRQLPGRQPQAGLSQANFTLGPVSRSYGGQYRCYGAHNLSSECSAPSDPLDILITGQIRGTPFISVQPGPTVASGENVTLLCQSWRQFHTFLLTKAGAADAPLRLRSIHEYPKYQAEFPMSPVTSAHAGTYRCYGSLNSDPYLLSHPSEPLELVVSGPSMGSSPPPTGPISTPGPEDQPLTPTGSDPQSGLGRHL
T2 sequence (O75022 24-443 limits assumed): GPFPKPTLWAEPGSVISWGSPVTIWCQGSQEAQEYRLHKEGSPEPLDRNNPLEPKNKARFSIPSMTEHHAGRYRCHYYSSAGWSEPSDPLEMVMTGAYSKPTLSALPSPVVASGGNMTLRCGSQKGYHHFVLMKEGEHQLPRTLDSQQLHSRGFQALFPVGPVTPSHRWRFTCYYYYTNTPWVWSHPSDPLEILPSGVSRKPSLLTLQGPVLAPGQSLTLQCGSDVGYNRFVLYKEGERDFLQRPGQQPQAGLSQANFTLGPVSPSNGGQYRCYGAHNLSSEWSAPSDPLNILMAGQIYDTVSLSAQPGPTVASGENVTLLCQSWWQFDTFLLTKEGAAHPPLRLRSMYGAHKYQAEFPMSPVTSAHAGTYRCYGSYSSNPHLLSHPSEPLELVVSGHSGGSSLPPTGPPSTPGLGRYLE
T7 sequence (fusion chain, as listed by the source): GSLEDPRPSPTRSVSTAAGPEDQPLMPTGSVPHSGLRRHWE
T6 sequence (fusion chain, as listed by the source): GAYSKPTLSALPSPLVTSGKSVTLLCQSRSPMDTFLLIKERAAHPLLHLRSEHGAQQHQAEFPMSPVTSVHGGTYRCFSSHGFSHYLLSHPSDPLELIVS
T5 sequence (Q8NHL6 24-458 limits assumed): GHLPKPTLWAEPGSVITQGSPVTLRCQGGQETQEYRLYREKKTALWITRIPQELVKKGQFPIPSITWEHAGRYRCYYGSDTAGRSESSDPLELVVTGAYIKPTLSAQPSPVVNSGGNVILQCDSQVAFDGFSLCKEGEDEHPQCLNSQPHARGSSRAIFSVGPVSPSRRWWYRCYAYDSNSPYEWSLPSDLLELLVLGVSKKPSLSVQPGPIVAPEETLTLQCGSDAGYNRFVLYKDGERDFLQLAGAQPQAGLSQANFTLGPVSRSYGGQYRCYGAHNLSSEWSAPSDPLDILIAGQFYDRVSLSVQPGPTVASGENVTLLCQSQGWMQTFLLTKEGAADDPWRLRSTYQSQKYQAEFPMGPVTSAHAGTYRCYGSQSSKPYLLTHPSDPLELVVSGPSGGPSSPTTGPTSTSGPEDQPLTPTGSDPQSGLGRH
Chain of D2-SR-M16(210-259) (chain, as listed by the source): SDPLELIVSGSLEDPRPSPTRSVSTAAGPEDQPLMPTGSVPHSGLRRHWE

B1: anti-LILRB mAb C39 (antibody, V domains shown)
VH: EVQLVESGGGLVQPGGSLKLSCAASGFTFSSYGMSWVRQTPDKRLELVATIDSNGGGTYYPDSVKGRFTISRDNAKNTLYLQMSSLKSEDTAMHYCARDGGGSYGYYYAMDYWGQGTSVTVSS
VL: DIVMSQSPSSLAVSAGEKVTMRCKSSQSLLNSRTRKSYLAWYQQKSGQSPKLLIYWASTRESGVPDRFTGSGSGTDFTLTISSVQAEDLAVYYCKQSYNLPWTFGGGTKLEIK
notes: mAb against LILRB2
For the molecule B1, the binding result with human LILRB4 [1], with LILRB3 [2] and with LILRB5 [3] was “binds” each time. Besides, the “% of cells in the positive gate” value with LILRB2 [4] stood at 18.7%.

B2: anti-LILRB4 rabbit monoclonal antibody #214 (antibody, V domains shown)
VH: QSVKESGGRLVTPGTPLTLTCTVSGFSLSSYWMHWVRQAPGKGLEWVGVVSVSGNFYYATWAKGRFTISKTSTTVDLKITSPTIEDTAFYFCTMSFALWGQGTLVTISS
VL: ELVMTQTASPVSAAVGGTVTINCQSSQSVYSNNNLGWLKQKPGQPPKELIYYASTLASGVPSRFKGSGSGTQFTLTISDLECDDAATYYCVGGYGCSSADCSVFGGGTEVEIK
notes: Rabbit mAb
Molecule B2 registered an EC50 in the experiment with human LILRB4 [5] of 0.00764 µg/mL.

B3: anti-LILRB4 rabbit monoclonal antibody #129 (antibody, V domains shown)
VH: EQSVKESGGGLVKPGASLTLTCTASGFSFSSSYHMCWVRQAPGKGLEWIGCIATGYGSTYYASWAKGRFTISKTSSTTVTLQVPSLTAADTATCFCARGYYRYTSDSYGYFDLWGPGTLVTISS
VL: ELVLTQTASPVSAAVGGTVTVNCQASQSISSGYLSWYQQKPGQPPKLLIYYASRLASGVPSRFSGSGSGTEYTLTISGVQCDDAATYYCLYVSYDGTTTDNAFGGGTEVEIK
For B3, the EC50 with human LILRB4 [6] worked out at 0.0901 nM; with human LILRB4 [7], 0.0135 µg/mL. For the same molecule, the binding result in the experiment with LILRB1, in the experiment with LILRB2 [8], with LILRB3 [9], with LILRB5 [10], with D2 and with SR was “no binding” each time.

B4: anti-LILRB4 rabbit monoclonal antibody #71-1 (antibody, V domains shown)
VH: QSVEESGGGLVKPGASLTLTCTASGFSFSSSYHMCWVRQAPGKGLEWIGCIATGYGSTYYASWAKGRFTISKTSSTTVTLQVPSLTAADTATCFCARGYYRYTSDSYGYFDLWGPGTLVTISS
VL: ELDLTQTASPVSAAVGGTVTVNCQASQSISSGYLSWYQQKPGQPPKLLIYYASRLASGVPSRFSGSGSGTEYTLTISGVQCDDAATYYCLYVSYSGTTTDNAFGGGTDVEIK
notes: Rabbit mAb
On to B4, for which the results for the EC50 in the experiment with human LILRB4 [6] and with human LILRB4 [11] were 0.134 nM and 0.02 µg/mL, respectively.

B5: anti-LILRB4 rabbit monoclonal antibody #223 (antibody, V domains shown)
VH: EQSVKESGGRLVTPGTPLTLTCIVSGFSLNNYAISWVRQAPEKGLEWIGMIRSDGHVDYATWAKGRFTISKTSTTVDLKMTSLTTEDTATYFCARGGHFFNPWGPGTLVTISS
VL: ELVMTQTPSPVSAAVGGTVTISCQSSQTVYNYNELAWYQQKPGQPPKLLIDAASTLASGVPSRFSGSGSGTQFTLKISEVQCDDAATYYCQGTYYISGWYYTFGGGTEVVVK
notes: Rabbit mAb
Regarding B5, the EC50 with human LILRB4 [6] was 0.0897 nM; with human LILRB4 [12], 0.0274 µg/mL.

B6: anti-LILRB4 rabbit monoclonal antibody #156-1 (antibody, V domains shown)
VH: QSVKESEGDLVKPGASLTLTCRASGFSFSSDYNMCWVRQAAGKGLEWIACIGVGTSGKTAYATWAKGRFTISRSSSTTVALQMTSLTVADTATYFCARPSYGSGGEGGGSGLWGPGTLVTISS
VL: ELDLTQTPASVSEPVGGTVTIKCQASQSIHSDLAWYQQKPGQRPKLLIYVASYLASGVPSRFSGSGSGTEYTLTISDLECADAATYYCQSTYYGSDYVGGAFGGGTEVVVK
notes: Rabbit mAb
Consider B6, for which the half-maximal effective concentration (EC50) is 0.0828 nM in the experiment with human LILRB4 [6] and 0.0124 µg/mL with human LILRB4 [13].

B7: anti-LILRB4 rabbit monoclonal antibody #140 (antibody, V domains shown)
VH: EQSLKESGGRLVTPGTPLTLTCTASGFSLSTYDMSWVRQAPGKGLEWIGIISTSYSIYYTYYASWAKGRFTISRTSSTTVDLKMTSLTTEDTATYFCVGGGGKLNSVVYYIRGLRFWGQGTLVTISS
VL: ELVMTQTPSSTSAAVGGTVTINCQASQSVYDDNWCSWYQQKPGQPPKLLIYDASTLPSGVPSRFKGSGSGTQFTLTISDLECDDAATYYCAGAYSDNIYVFGGGTEVEIK
notes: also called mAb 140
In the case of B7, the concentration for a half-maximal effect (EC50) in the experiment with human LILRB4 [6] came out at 0.183 nM; with human LILRB4 [14] it was 0.0274 µg/mL. Moreover, the concentration giving a half-maximal response (EC50 (read off the curve)) in the experiment with D2-SR-M16(210-259) is ~0.04 µg/mL.

B8: anti-LILRB4 rabbit monoclonal antibody #216-1 (antibody, V domains shown)
VH: EQSVEESGGGLVKPGASLTLTCIASGFSFSSSYVMCWVRQAPGKGLELIACIHAGGSGSTYYASWAKGRFTISKTSSTTVTLQMTSLTAADTATYFCARYNYHFYYIGDYSDLWGPGTLVTVSS
VL: ELVMTQTPSSVSAAVGGTVTIKCQASEDIDSYLAWYQQKPGQRPKVLIYRASTLASGVPSRFKGSGSGTEFTLTISGLECDDAATYYCQQGWSNDVGSNAFGGGTKVEIK
notes: Rabbit mAb
Molecule B8 yielded an EC50 in the experiment with human LILRB4 [15] of 0.0459 µg/mL.

B9: anti-LILRB4 rabbit monoclonal antibody #101 (antibody, V domains shown)
VH: HSVKESGGGLVTPGESLKLTCKASGMDFSKYWICWVRQAPGKGLEWIACIDTGRSAITVYAKWAKGRFTISKTSSTTVTLQMTTLTAADTATYFCETSVDLWGPGTLVTISS
VL: ELDLTQTPASVEAAVGGTVTIKCQASESIYSGLAWYKQKPGQPPKFLILSASTQASGVPSRFKGSGSGTEFTLTISDLECADAATYYCQSRHYGSSRSYGFAFGGGTEVEIK
notes: Rabbit mAb
In the case of B9, the EC50 with human LILRB4 [6] is 0.118 nM; with human LILRB4 [16], 0.0177 µg/mL.

B10: anti-LILRB4 rabbit monoclonal antibody #210 (antibody, V domains shown)
VH: EQSVEESGGRLVTPGTPLTLTCTVSGFSLSSYIMGWVRQARGKGLEYIGAINTDGATYYATWAKGRFTISRTSTTVHLKVTSPTTEDTATYFCARSLAPGDSNINLWGQGTLVTISS
VL: ELVLTQTPSPVSAAVGGTVTISCQSSESVYRNNRLAWYQQKPGQPPKRLIYLASTLASGVPSRFKGSGSGTQFTLTISDVQCDDAAAYYCAGDSGVGIIAFGGGTEVEIK
For B10, the EC50 amounted to 0.0997 nM with human LILRB4 [6] and 0.0149 µg/mL with human LILRB4 [19]. The binding result is listed as “binds” with LILRB3 [17]; “binds” with LILRB5 [18]; “no binding” with LILRB1; “no binding” with LILRB2 [8]; “no binding” in the experiment with D2; “no binding” in the experiment with SR.

B11: anti-LILRB4 rabbit monoclonal antibody #6 (antibody, V domains shown)
VH: QSVKESGGRLVTPGTPLTLTCTASGFSLSTYYIDWVRQAPGRGLEYIGVINPGGSAVYATWAKGRFTISRTSTTVDLKMTSLTTEDTATYFCARGWSRGDLWGQGTLVTISS
VL: ELDMTQTPSPVSAAVGGTVTIKCQSSQNVYDDDTLSWYQQKPGQPPKLLIYDASKLASGVPSRFKGSGSGTQFTLTISGVQCDDAATYYCLGVFHDAADNAFGGGTELEIK
notes: Rabbit mAb
Consider B11, for which the results for the concentration for a half-maximal effect (EC50) with human LILRB4 [6] and with human LILRB4 [20] were 0.0767 nM and 0.0115 µg/mL, respectively.
